Measurements as given in the DeepSol protein solubility set.

Assay: soluble on expression in E. coli; label from the status in PepcDB or PDB records

Sequence	soluble on expression in E. coli
MYGISVFLGEEITNDTIIYIKKMKALGFDGIFTSLHIPEDDTSLYRQRLTDLGAIAKAEKMKIMVDISGEALKRAGFSFDELEPLIELGVTGLRMDYGITIEQMAHASHKIDIGLNASTITLEEVAELKAHQADFSRLEAWHNYYPRPETGIGTTFFNEKNRWLKELGLQVFTFVPGDGQTRGPIFAGLPTLEKHRGQNPFAAAVGLMADPYVDAVYIGDPTISERTMAQFGYYHQTNQFLLEVAPSESRYLKRILGTHTNRLDAARDVLRSELSRTSEMFRKDEIATIESEQTEARPVGTVTIDNEKYGRYMGEIQVTLVDLPKDEKVNTITRIIEKDQTILPLIKAGNQFTLVTEGTIENEFRKLNN	soluble
MAHHHHHHMSVSSPLASSGEREQYGPQEQRQYGFVPVQMTNLVPVRVVSVHGDFFDMEIHQDAPLHIVQRAAEDCFKVRPELQLLTHNRKPINPNQSLRRNGCLLLKGDPFVKIVLDVKKGSRLNIVCQMAHCEPIPLACEAEDTIWDVKKKFCSSLEKSEVTPQRIRLLWRYWELNDKATVDYYHIPTNSKLTVMKKRDILGGQQTERRRAPSQRRRQDVQRRHERCDADTDDVAAWPKAPSVVPPYEKYRQASGREPLEGEDNRSKTPNANGSAQVVEGGADRDSHHPPIRAWPALPQEQFGRAVIPLYPIVPPLSGGSYYREPRAQTPDRRPAVVPVAEATQVVDFTEVQRLRMEVEELGRRMETCVTDRAEFSAMEESFRAAVTRVSELEASVGRVQNLLKRALHLM	not soluble
AVSKVYARSVYDSRGNPTVEVELTTEKGVFRSIVPSGASTGVHEALEMRDGDKSKWMGKGVLHAVKNVNDVIAPAFVKADIDVKDQKAVDDFLISLDGTANKSKLGANAILGVSLAASRAAAAEKDVPLYKHLADLSKSKTSPYVLPVPFLNVLNGGSHAGGALALQEFMIAPTGAKTFAEALRIGSEVYHNLKSLTKKRYGASAGNVGDEGGVAPNIQTAEEALDLIVDAIKAAGHDGKVKIGLDCASSEFFKDGKYDLDFKNPNSDKSKWLTGPQLADLYHSLMKRYPIVSIEDPFAEDDWEAWSHFFKTAGIQIVADDLTVTNPKRIATAIEKKAADALLLKVNQIGTLSESIKAAQDSFAAGWGVMVSHRSGETEDTFIADLVVGLRTGQIKTGAPARSERLAKLNQLLRIEEELGDNAVFAGENFHHGDKL	soluble
MAGDPMFKKRLNKDKINDCYTWEEELPDGSYDMGFHGNLNHMEKGKSGYVTHKQLDKKLEVFKQDLLVELSEKFVTKEEFRAQGKQIKELQIEQKAQGKTLQLILEALQGINKRLDKLESKLEHHHHHH	soluble
MESSVDEEALHQLYLWVDNIPLSRPKRNLSRDFSDGVLVAELIKFYFPKMVEMHNYVPANSLQQKLSNWGHLNRKVLNKLNFSVPDDVMRKIAQCSPGVVELVLIPLRQRLEERQRRQKLGVGSLQELAPQDSSGYMDMGLPQKVRGEGAPALGEQLREGRPLASRPPGYNQALQGDPSFVLQIAEKEQELLASQETVQVLQMKVKRLEHLLQLKNVRIDDLSRRLQQAERKQR	soluble
MTHYKDDSYALHTDLYQINMAYTYWKDGIHNRRSVFDLYFRKLPFENGYAVFAGLEKIVEYIENFSFTESDIAYLAELQFEEEFLHYLQNMKFTGTIRSMQEGEVVFNNEPLLRVDAPLGEAQIIETALLNIVNYQTLIATKAARMKHAASNDELLEFGTRRAHEFDAALWGTRAAFIGGFSSTSNVRAGKRFGIPVAGTHAHSFVQAYRDEYVAFKKYAETHKKCVFLVDTYDTLKSGVPNAIRVAKEFGDRIDFYGIRLDSGDMAYLSKKARKLLDEAGFTNTKIIASSDLDEYTIMHLKSQGAKIDVWGVGTKLITSFEQPALGAVYKLVAIEDTDGKLNDTIKISSNPEKITTPGLKRIYRIINRVNDHAEGDYIALDSEEPGKEERLKMFHPVHTYISKFVTNFEARELHKDIFVNGERTYELPSILDIQKYNEQSLSLFWEEYMRTLNPEEYPVDLSQECWDHKMNYIQTVREQVEKNIQK	not soluble
FDAIAGSISDAVVTIDADSEVVYANDEAVELTGYDRKELVGDDFAKVIPEHLRSAHFEGLDRYLRTGNRNVDWDYLELPLVTAAGDQLTVAVSFGDFERNGQWFCTGVLRDIS	not soluble
AHHHHHHGSARITEEQRRKLAQDALEYHRNNFPGNGKIEVIPKVPLRDFYDLSLAYTPGVAEPCKVIAKKGNYEDYTIIPNTVAVVTDGSAILGLGNIGVLAGMPVMEGKCVLFKALAGIDAFPILIDTQDVEKIVETIKLISKGFGGINLEDISAPRCFEIEMRLKRELDIPVFHDDQHGTAVVTLAGLINALKLVGKKFNEIKVAISGAGAAGIAIAKLLHHVGVKEILLVDRAGIIYEGRKENMNPYKEEVARFNIHGVQGDLAKAMEGADVFIGVSVGGIVKPWMIKKMADDPIVFAMANPIPEIMPEDAKKAGAKIVATGRSDYPNQINNVLGFPGIFRGALDVRATDITLNMNIAAAEAIASVVSDEELSEDYIIPSPLHPDVYPKEARAVAEQAIRDGVARRKLSGEWVEEHTRKLREFYAALIEPLNERRKQYIT	soluble
MRGSHHHHHHGSKVRGKYDGPKINDYDKFYEDIWKKYVPQPVEVKQGSVYDYYDILEELGSGAFGVVHRCVEKATGRVFVAKFINTPYPLDKYTVKNEISIMNQLHHPKLINLHDAFEDKYEMVLILEFLSGGELFDRIAAEDYKMSEAEVINYMRQACEGLKHMHEHSIVHLDIKPENIMCETKKASSVKIIDFGLATKLNPDEIVKVTTATAEFAAPEIVDREPVGFYTDMWAIGVLGYVLLSGLSPFAGEDDLETLQNVKRCDWEFDEDAFSSVSPEAKDFIKNLLQKEPRKRLTVHDALEHPWLKGDHSNLTSRIPSSRYNKIRQKIKEKYADWPAPQPAIGRIANFSSLRKHRPQEYQIYDSYFDRKEAVPRFKLRPSLISS	soluble
MQPSHPSQPSHADRAAPTSALAPVVPPVLAEVVRSGFVEGRHRGSLVVLGADGAVELALGEVTAPVFPRSSNKPMQAAGVLRAGLDLAGERLALAAASHSGEPFHRDLVRKMLDEYGLDPALLQCPPDLPLDAEERETYLASGAEPDRVTMNCSGKHTAMLAVCAQQGWPLETYLDPEHPLQRVIHRVVEDAAGEPVAAVGTDGCGAPLMAISLVGLARAFRSFVAAEPGSAERRVADAMRAHPEYVAGSRRADTWLMREVPGSLSKMGAEAVQAVALPDGRALAFKIEDGATRALGPVLARALTLLGVDAPVVGRIGRAPLLGGGREVGEIRASFLEHHHHHH	not soluble
MFGCITMSENNQCVIVGIAGASASGKSLIASTIYNELRAKVGDHQIGVITEDCYYKDQSHLSMEERVKTNYDHPSALDHDLLCQHLQMLARGEAVEVPEYSYTEHTRTEQTTTMTPKKVIILEGILLLTDPRLRDLMHATVFMDTPLDICLLRRVKRDVQERGRTMESVLKQYQETVRPMFMQFIEPSKQYADIIVPRGGKNRIAIDVLKAHIAKLLKS	not soluble
MGSDKIHHHHHHMISSSTVHAFYFSAKYSSFSRAAEILETTQPNISGQIIKLEKDLDTILFIRKQGRVSLSKEGEKLYLVAEKIVNSYKEFDSVVEYFFEEEPIVIVTQPRLYTKYVAPYLTDDLINNNLFHIKTGELTAIKSWLDKEDADIVITEGLFDSHSRYINEGVIDVLKFSWAKKVNEQFDSPCPTLVHSKVWDHWHDLSSALNRNKEFKRKLIIDTPDFAERLIESGVGIGLLPNVMISNNANLEVCHGPTRNNVLGPICLYSKKYSQHKNLRSLVNMFKKESSDS	not soluble
MVIRMAYSELYWQKEEVMPKKELEELQLKRLRWVVRHAYENVAHYRRKLKEAGVHPDDIKKREDIAKIPFTTKKDFAENYPFGLFAVPKEEIVRLHTSSGTTGKPKVVGYTANDLENWINLVARCLYMVGVRKHDIFQNMANYAFFTGGLGIHDGAERIGAMVIPAGVGNTERQVRCMADFGTTAIHSTPSYALHVKEVAEELGVDDKLSLRIGCFGAEPWSENTRKRLEDAFNIKAFDSYGLSEMNGPGVAFECEEQHGLHIWADHYFIEIIDPQTGEPLSEGEKGELVLTPLTKEALPVLRYRTGDITYIMDDECSCGRTHPKIHRILGRSDDMIIVRGINVFPSQIEHVLMQIPEVGDHFQVVITRNGTLDEITVRVEVRDELFTGELFDLQRLQQKVQRELQKELGLRTNVELVEKGTIERSKGKAKRVLDLREEL	not soluble
